Measured values: patent publication US20160235810A1, “METHODS OF TREATING DIABETES AND RELATED DISORDERS” (NOVARTIS AG, priority 2013, published 2016)

Key:
[1] = system: high fat diet-induced obese (DIO) mice; assay: OGTT after hydrodynamic injection (HDI) of vector encoding PIP/Sval1 in high fat DIO mice; type: in vivo
Source text: To ascertain if this newly implicated factor can replicate some of the benefits shown by the RYGB surgery, a hydrodynamic gene delivery method was developed in-house. We tested the effect of delivery of DNA encoding the secreted factor PIP in vivo. The Fc-fusion proteins of PIP was encoded in pLEV113 vector, which was delivered via hydrodynamic injection (HDI) in high fat diet-induced obese (DIO) mice.
Mice, that were maintained for 12 weeks on high fat diet (60% Kcal fat, Research Diets), were sorted into groups based on their body weights and fed blood glucose levels. On the day of HDI of the PIP vector or control pLEV113 vector (30 ug/mouse), mice were placed in a restrainer and tails were cleaned with 70% alcohol. A 27-G butterfly needle connected with a 3 ml syringe was inserted into the tail vain, with bevel facing up, and pulled backwards on the syringe plunger to ensure blood was drawn into the syringe. The desired volumes (7% of body weight, up to a total of 3.2 mL) of DNA construct solution was injected over a short period (5-10 seconds) by hand. The needle was then withdrawn and bleeding stopped by adding pressure to the injection site with gauze.
After the HDI procedure, mice were monitored twice daily in the first 48 hours and then once per day for a week. Basal fed blood glucose levels in mice were measured at day 14, and blood samples were collected to obtain plasma for measuring Fc level or for endogenous protein levels in the future.
At day 16 post-HDI an OGTT was conducted to evaluate glucose handling and beta cell function. Basal and glucose-stimulated glucose and insulin levels were measured over 2-3 hours during the OGTT.
At day 30, basal blood glucose levels, changes in weight or food intake, and another functional tests, such as an OGTT, were performed for a 2nd time.
At day 40 post-HDI, the study was terminated by euthanization of mice and plasma collected for key metabolic biomarkers.

[2] = system: diabetic non-human primates; settings: Kharitonenkov et al. 2007; cited from earlier work

B1: human PIP: human prolactin-inducible protein (GenBank NP_002643), here delivered via HDI of vector (protein, UniProt P12273 29-146, looked up)
Prolactin-inducible protein: QDNTRKIIIKNFDIPKSVRPNDEVTAVLAVQTELKECMVVKTYLISSIPLQGAFNYKYTACLCDDNPKTFYWDFYTNRTVQIAAVVDVIRELGICPDDAAVIPIKNNRFYTIEILKVE
beta cell function compared to mouse Sval1 ([1]; HDI administration in DIO mice): improved beta cell function similar to that of mouse Sval1

B2: FGF-21: Fibroblast Growth factor 21, an endocrine hormone; proposed fusion partner (protein)
chain: HPIPDSSPLLQFGGQVRQRYLYTDDAQQTEAHLEIREDGTVGGAADQSPESLLQLKALKPGVIQILGVKTSRFLCQRPDGALYGSLHFDPEACSFRELLLEDGYNVYQSEAHGLPLHLPGNKSPHRDPAPRGPARFLPLPGLPPALPEPPGILAPQPPDVGSSDPLSMVGPSQGRSPSYAS
increase in HDL cholesterol [2]: ~80%

B3: mouse PIP: mouse prolactin-inducible protein, delivered as DNA in pLEV113 vector via hydrodynamic injection (full length native and Fc-tagged tested) (protein, UniProt P02816 27-146, looked up)
Prolactin-inducible protein …: QDDENVRKPLLIEIDVPSTAQENQEITVQVTVETQYRECMVIKAYLVSNEPMEGAFNYVQTRCLCNDHPIRFFWDIIITRTVTFATVIDIVREKNICPNDMAVVPITANRYYTYNTVRMN
reduction in glucose area under the curve during an OGTT ([1]; hydrodynamic gene delivery, high fat DIO mice, glucose AUC 0-120 min, compared to vector control group): 30%
increase in insulin area under the curve (GSIS) during an OGTT ([1]; hydrodynamic gene delivery, high fat DIO mice, insulin AUC 0-30 min, compared to vector control group): 72%
